Laboratory results taken from a protein production outcome set (Wang et al. 2014).

Assay: label from the status in PepcDB records

| Sequence | protein production |
| --- | --- |
| MSYEAIMLERNGAVGVLTFNRPEVLNAYNRTLAADIITGFNELVADKSVRAIVLTGAGKAFMAGADINMVNGWTKLGNAAKIKEDLRQLVNPNMIEDCPKPTIAAVNGLAFGMGCELAMACDFRIAAEKAQFGQPEVKLGIIPGAGGSQRLRELVGPTRALEMISTGDPIDAQEAYRIGLVNQVVPRDELMEAVNAFAGRLIDKGAVVLDICKKLVYEGGDLPLRGGIDYEQDQFCKILLTADAQEGTLAFLEKRKPVFNKG | failed |
| MDYRQLHRWDLPPEEAIKVQNELRKKIKLTPYEGEPEYVAGVDLSFPGKEEGLAVIVVLEYPSFKILEVVSERGEITFPYIPGLLAFREGPLFLKAWEKLRTKPDVVVFDGQGLAHPRKLGIASHMGLFIEIPTIGVAKSRLYGTFKMPEDKRCSWSYLYDGEEIIGCVIRTKEGSAPIFVSPGHLMDVESSKRLIKAFTLPGRRIPEPTRLAHIYTQRLKKGLFLEHHHHHH | not failed |
| MAPCAGGTCRTASERRHLQCRSRPSQGRQGGSKSAGRGFIAAEFPCLDGGEPISTARAFRDRNREFSPAMRAILDIVLIILDLYIWLLIASAILSWLIAFNVVNTRNQFVGAVSEFLYRITEPLLAPIRNLLPSLGGLDISPIILILLIMFLQRVITYYIYPAVF | failed |
| MDRLAHMQMFVAVVEAGSITAAAERMNLAKSAVSRRLAELEAGLGVSLIQRTTRRLNLTESGRTYYARCVAILADVEDAEAEVSQGHGALRGRLKVALPQAFGLLHLAPLIQTFMKRHPDVRLELDFNDRQVDLMQEGFDLAIRIATLADSTLIARRLAAIPHRVVASPGYLARRGTPRAAADLTQHDCLAYSNVRDPGLWSYRDPGGEPGQVRVVVRLAASSGEFLLQAAIADEGLVLLPAFYLHAALRSGQLSEVLADHRWPEPAAYAVYPPTRHLSARAHAFIDFLAGHLGGAGEPPAGDEVAPTLAPNTSAG | failed |
| MTNMFSLLYPLISIVIGVVPLFIFKRNAYLLGIAAASYFTAIILKEIIQLSFRSFFITPTLPTYLSYGILTAIFEPGFAYLYLVLTKAKVNGQLGLSYGSYLAFYENAIFLGLLSLPNYLLLSVQFSVLSLALYGLERISSFILHLFWGFSSALSASKKNIKYLSVSMPYGMVDSVAAYYQLSHNISLVSTEIISLVVSISCLPIIVLWYKMDKRNQRLD | failed |
| MVGQREPAPVEEVKPAPEQPAEPQQPVPTVPSVPTIPQQPGPIEHEDQTAPPAPHIRHYDWNGAMQPMVSKMLGADGVTAGSVLLVDSVNNRTNGSLNAAEATETLRNALANNGKFTLVSAQQLSMAKQQLGLSPQDSLGTRSKAIGIARNVGAHYVLYSSASGNVNAPTLQMQLMLVQTGEIIWSGKGAVSQQLEHHHHHH | not failed |
| MESAATAVVPPAAAATTATATDDNLQSSDSSSPADAVNRLIHAFSQRQQHLLDKTVPHVLYRWIACLCVVLIYIVRVYFVEGFYIITYAIGIYLLNLIIAFLSPQEDPEASLTSGGSLPTRRSDEYRPFVRRLPEFKFWLSIIRAFIIGFMMTFFEVFDVPVFWPILLFYWVMLFFLTMRKQIQHMIKYRYVPFSFGKKVCVSFSFLPSQN | failed |
| MTSQVSSTTEQADEPVVGEQRKPAGAKDVRRLDRVIIRFAGDSGDGMQLTGDRFTSETASFGNDLSTLPNFPAEIRAPAGTLPGVSSFQLHFADHDILTPGDAPNVLVAMNPAALKANVSDLPRGAEVIVNTDEFTKRAMQKVGYGTSPLEDGSLDGYSVHPVPLTTLTVEALKEFELSRKEAERSKNMFALGLLSWMYHRPTEGTEKFLTTKFAKKPAIAAANIAAFRAGWNFGETTEDFAVSYEVAPAQSAFPAGTYRNISGNLALSYGLIAASRQADLPLYLGSYPITPASDILHELSKHKNFGVRTFQAEDEIAGIGAALGAAFGGSLAVTTTSGPGVALKSETIGLAVSLELPLLVVDIQRGGPSTGLPTKTEQADLLQAMYGRNGEAPVPVVAPRTPADCFEAAIEAARIALTYRTPVFLLSDGYLANGSEPWRIPETDGLPDLRVRFAQGPNHTLDDGTEVFWPYKRDPGTLARPWAIPGTPGLEHRIGGIEKQDGTGNISYDPANHDFMVRTRQAKIDGIDVPDIEVDDPDGASALVLGWGSTYGPITAAVRRLRTAGESIAQAHLRHLNPFPSNLGAVLKGYDKVVIPEMNLGQLATLIRAKYLVDAHSYNQVNGMPFKAEQLATALKEAIDD | failed |
| MKRLLLCLIVIAQTILSLTAQTTEELSRMQTLIDHMAYTEALAWADSCSLQDEQALHLRAKALSELGRHPEAFAVYQRIVRMDPHDAVAYRLGAALQVDMQDYATAAEMLHQGYERTSDIPTGYDLAKLLVHIGQDSTALVITDRILRQDSLPPVIRLRAKALNKRQQPSQAIALLEEQMLRDSTDFLTLIDLATLYGQVEETRRQEQVTARYLQTDSLNVAVLLAHAESMMMLQEADSALHDYERIIGRGHFPTSFKDLFYCGLAYYKTGRWAVAEECFRRADESAFQQNYLTKYYLGMCAYRQKLWEEAEKRLQKLLDLIEPKTDRLTDVHTMLGRCANEQGRTETAISHLRYAIEYDSGNSEACLLLAQCFEKTGNRTGAIHMYRRVLDKERASTAKNDIEGFRRLAEARSRLSLLKADDSEDEETP | failed |
| MVWGTFLKNKKPYSIKRQLTLSVGLLVSALLLISLYFSFQSAKHEVEEVYDARLGQSAKLMLLTLSISTETDTLANHRELFDQWMKNIDSLAKSDEDKATKFGHPYEQNLVFQFYRDNKLIWSSTPNLRSLSSSFYNNGYADITKDGVQWRTFQLSLPQTEHENEYVVVAEKQKIRKEIIHEIALSTSIEQLLLLPTLLLLLFWLIDRYFRPINDLRTAITQRNVHRLDRIHVTDNTTELAPLVEALNSLLSELEQAWQREKRFTRAAAHELKTPLTILRLNVENALESNDPEQLRGDLHNILQGIERTDRLIHQLLTLAKVDSLSERVFDNVELTPLLQTVVADLAPLALRQDQDISLSPAEVALSGDKMLLEVLFRNLVDNAIRYSGAHSEIQVSVQENRNAIKILISDTGPEIPQETRERIFEQFYRGHSEKGDGAGLGMSICKDIATLHSAIIELIPRENGKNTFVVAFPKH | failed |
| MARPLVPSSQKALLLELKGLQEEPVEGFRVTLVDEGDLYNWEVAIFGPPNTYYEGGYFKARLKFPIDYPYSPPAFRFLTKMWHPNIYETGDVCISILHPPVDDPQSGELPSERWNPTQNVRTILLSVISLLNEPNTFSPANVDASVMYRKWKESKGKDREYTDIIRKQVLGTKVDAERDGVKVPTTLAEYCVKTKAPAPDEGSDLFYDDYYEDGEVEEADSCFGDEEDDSGTEES | failed |
| MNIYSLFVVAIALSLDAFGVALSIGLDSCVKRKNKLLFAISFGFFQFLCTFIGAYSGFLFNTYITYVPQIIGGMIIAFVGAFMIKEGFDNKEEKLLLNFKMYFVLGISVSIDAAVVGFTMFNKISSNYVILGDSVFIGIVTLILSIIAFIISRYLKRIQLVCKYADYIGGIILVIFGLKMMFF | failed |
| MTRVKSKLDEELSSPWFYTVCTMGGMLSAGTTHLAITPLDVLKVNMQVNPVKYNSIPSGFSTLLREHGHSYLWRGWSGKLLGYGVQGGCRFGLYEYFKTLYSDVLPNHNRTSIYFLSSASAQIFADMALCPFEAIKVRVQTQPMFAKGLLDGFPRVYRSEGLAGFHRGLFPLWCRNLPFSMVMFSTFEQSVEFIYQKIIQKRKQDCSKAQQLGVTCLAGYTAGAVGTIISNPADVVLSSLYNNKAKNVLQAVRNIGFVGLFTRSLPVRITIVGPVITLQWFFYDAIKVLSGFPTSGGVKKPVDAAKLSV | failed |
